Results taken from paper PMC11696352.

Target: importin α5 (UniProt P52294)
Assay: Flag co-IP, immunoblot
Details: reference: Flag-GCLM wild type; sites T17

For “GCLM (glutamate-cysteine ligase modifier subunit) (from UniProt P48507) Flag-GCLM T17A”, the “binding against the reference” value was “weaker”.
